This passage reports peptide exchange yield results from patent US20200087364A1 (IMMATICS BIOTECHNOLOGIES, published 2020).

A value given as a limit tells only on which side of the number the result lay.

The assay concerns the target T1, HLA-A*01:01 (human).
T1 construct: MHC class I monomer first loaded with a UV-sensitive peptide (not identified) that is cleaved by UV irradiation and exchanged for the tested peptide; captured on streptavidin plates, detected with anti-β2m; also called peptide-receptive MHC molecules
Briefly: UV-ligand exchange, anti-b2m ELISA. The gist of the method:
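Peptide–MHC complexes made by UV-ligand exchange of a UV-cleavable peptide; exchange yield measured by ELISA on streptavidin-coated plates, samples diluted 100-fold, 1 h 37 °C. Detection with 2 ug/ml HRP anti-β2m, TMB, A450; refolded HLA-A*02:01/MLA-001 monomer standards 15-500 ng/ml.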
Regarding YLENSASWY, the peptide exchange yield is over 75%.

In the case of RFRSITQSYY, the peptide exchange yield lay within 10 to 20%.

IPSFNEMVY yielded a peptide exchange yield of 20 to 50%.

Take ATEGDVLNY: the peptide exchange yield was 50 to 75%.

As for KSWSQSSSLMY, the peptide exchange yield lay within 50 to 75%.

Take RFDDINQEF: the peptide exchange yield fell in the range of 10 to 20%.

Molecule SLIIDDTEY came in with a peptide exchange yield of 20 to 50%.

Consider STEERRLNY, for which the peptide exchange yield is 50 to 75%.

In turn, FHADSDDESF showed a peptide exchange yield of 10 to 20%.

YEPATMEQY came in with a peptide exchange yield of 20 to 50%.

Consider NLDPNKIY, for which the peptide exchange yield lay in the range of 10 to 20%.

YYDLVESTF: the peptide exchange yield is 10 to 20%.

In turn, FSEPFHLIVSY gave a peptide exchange yield of over 75%.

In turn, LPDPNVQKY yielded a peptide exchange yield of 20 to 50%.

As for NKEINYFMY, the peptide exchange yield was in the range of 50 to 75%.

Consider MSPDIALLYL, for which the peptide exchange yield lay in the range of 50 to 75%.

As for SANALILTY, the peptide exchange yield is 20 to 50%.

Turning to AVMEAAFVY, the peptide exchange yield lay in the range of 50 to 75%.

GSFSIQHTY: the peptide exchange yield is 20 to 50%.

The molecule RSDPGGGGLAYAAY returned a peptide exchange yield of over 75%.

Regarding NSALNPLLY, the peptide exchange yield is over 75%.

Molecule RIEAIRAEY gave a peptide exchange yield of 20 to 50%.

Molecule TTQDELLVY showed a peptide exchange yield of 50 to 75%.

Regarding MTSTEQSLYY, the peptide exchange yield is 50 to 75%.

TAKAPSTEY returned a peptide exchange yield of 20 to 50%.

Regarding ESAATGQLDY, the peptide exchange yield was in the range of 50 to 75%.

The molecule TQHFVQENY had a peptide exchange yield of 20 to 50%.

For LTDRDVSFY, the peptide exchange yield was over 75%.

As for YMSPDIALLY, the peptide exchange yield was over 75%.

On to ETEPERHLGSY, for which the peptide exchange yield lay in the range of 50 to 75%.

Take VTEYAEEIYQY: the peptide exchange yield was 50 to 75%.

In the case of DTGYLQLYY, the peptide exchange yield is over 75%.

YTAHVGYSMY: the peptide exchange yield was over 75%.

Turning to WSQSSSLMY, the peptide exchange yield is over 75%.

Molecule FVDTKVPEH came in with a peptide exchange yield of 20 to 50%.

The molecule NSAINPLIY had a peptide exchange yield of over 75%.

VACGNNPVY displayed a peptide exchange yield of 50 to 75%.

PPDHAVGRTKY came in with a peptide exchange yield of 20 to 50%.

On to EVDIHTIHY, for which the peptide exchange yield fell in the range of 50 to 75%.

Molecule YADPSANRDLL came in with a peptide exchange yield of 20 to 50%.

Molecule ASDVDTLLK returned a peptide exchange yield of 50 to 75%.

Consider RLSTIRHLY, for which the peptide exchange yield was in the range of 50 to 75%.

Turning to TSDQLGYSY, the peptide exchange yield was in the range of 50 to 75%.

SGALDEAAAY returned a peptide exchange yield of 20 to 50%.

In turn, ASSLDSLHY showed a peptide exchange yield of over 75%.

LTDTGYLQLY yielded a peptide exchange yield of over 75%.

In turn, QVWGGQPVY registered a peptide exchange yield of 10 to 20%.

In turn, WSDSTSQTIY displayed a peptide exchange yield of over 75%.

In turn, ITDEDEDMLSY showed a peptide exchange yield of 50 to 75%.

With EDDEDEDLY, the peptide exchange yield was 50 to 75%.

Molecule YLEDRPLSQLY gave a peptide exchange yield of over 75%.

FTTQDELLVY registered a peptide exchange yield of 50 to 75%.

The molecule FMVIAGMPLFY returned a peptide exchange yield of 50 to 75%.

In the case of YYYDTHTNTY, the peptide exchange yield fell in the range of 10 to 20%.

Take ILKGGSGTY: the peptide exchange yield lay in the range of 20 to 50%.

In turn, FTAEEGQLY came in with a peptide exchange yield of 50 to 75%.

Molecule MTSTEQSLY gave a peptide exchange yield of 50 to 75%.

For QVPLDCVLY, the peptide exchange yield fell in the range of 20 to 50%.

GSNPARYEF came in with a peptide exchange yield of 20 to 50%.

SRSDFEWVY displayed a peptide exchange yield of 20 to 50%.

The molecule ITVDVRDEF displayed a peptide exchange yield of 10 to 20%.

The molecule ETSFSTSHY came in with a peptide exchange yield of over 75%.

WSDGVPLLY gave a peptide exchange yield of over 75%.

Regarding ASDPASSTSCY, the peptide exchange yield lay within 50 to 75%.

HSDLLEDSKY displayed a peptide exchange yield of 50 to 75%.

Take LMEKEDYHSLY: the peptide exchange yield was in the range of 50 to 75%.
